Data as given in paper PMC9814837, “Design of a gold clustering site in an engineered apo-ferritin cage” (Communications Chemistry, 2022).

Target: the molecule itself
Assay: crystal structure; hanging-drop vapor diffusion, 0.5-1 M (NH4)2SO4 and 10-20 mM CdSO4, 20 °C; data at 100 K; space group F432, cage rebuilt by symmetry; apo protein and composites after reaction with 10-400 equiv. Au(I) precursor

B1: apo-R168H/L169C-rHLFr (recombinant L-chain ferritin from horse liver, R168H/L169C mutant) (natural protein, UniProt P02791 1-175, looked up)
chain: MSSQIRQNYSTEVEAAVNRLVNLYLRASYTYLSLGFYFDRDDVALEGVCHFFRELAEEKREGAERLLKMQNQRGGRALFQDLQKPSQDEWGTTLDAMKAAIVLEKSLNQALLDLHALGSAQADPHLCDFLESHFLDEEVKLIKKMGDHLTNIQRLVGSQAGLGEYLFEHCTLKHD
notes: ferritin L-chain, horse liver, recombinant (rHLFr); last residue named is Asp174; Crystallised apo and after reaction with 10-400 equiv. of chloro(dimethylsulfide)gold(I); also called Au(10 equiv.)-apo-R168H/L169C-rHLFr; Au(50 equiv.)-apo-R168H/L169C-rHLFr; source: E. coli (NovaBlue, vector pMK2), purified (heat treatment, Q Sepharose, S-300); copies: 24
Q: Does B1 bind?
A: binds
